Data published in patent US20160280788A1, “USE OF ANTIBODIES AGAINST ICAM-1 IN THE TREATMENT OF PATIENTS WITH RELAPSED CANCER” (BioInvent International AB, priority 2010, published 2016).
Entries after “also recorded” stand apart in the source; their conditions may differ.

Tests used:
[1] = tested on: Daudi cells; assay: Subcutaneous Daudi non-Hodgkin lymphoma xenograft; assay type: in vivo, scid mice; conditions: twice weekly i.p. from day 1; compared to rituximab
[2] = Mouse serum antibody levels by ELISA at end of xenograft experiment; assay type: in vivo; conditions: mouse serum at end of experimentation
Procedure: We next performed a dose-titration experiment to establish IgG B11 in vivo potency and the minimal dose achieving maximal anti-tumor activity, using the scid/ARH-77 model system. […] Mouse serum antibody trough concentrations were determined by ELISA at the end of experimentation. Trough antibody concentrations were then plotted against percent of maximal in vivo anti-tumour activity, and against percent of maximal ICAM-1 receptor occupancy and tumour cell PCD at corresponding antibody concentrations in vitro (FIGS. 3C, 3D, 3E, 3F and 3G). Strikingly, a near perfect correlation between antibody concentration and in vitro tumour cell receptor occupancy, in vitro tumor cell PCD, and in vivo anti-tumour activity was observed, consistent with ICAM-1 dependent direct cell cytotoxicity underlying in vivo anti-tumour activity.

[3] = target: recombinant human ICAM-1 (Homo sapiens, UniProt P05362); assay: ELISA on recombinant human ICAM-1, ICAM-2, ICAM-3; assay type: binding; conditions: vs ICAM-2, ICAM-3
Procedure: Antibody-specific bands were excised and subjected to tryptic digestion and analyzed by MALDI-TOF. The single band precipitated by BI-505 was identified as ICAM-1. The established identity of ICAM-1 was confirmed by blocking studies by up to 50-fold molar excess soluble recombinant ICAM-1 or VCAM. The MFI of BI-505 to PC-3 cells was determined by flow cytometry. Dashed line represents the negative control antibody and gray solid histogram represents the MFI of BI-505 with no preblocking. BI-505 was preblocked by recombinant VCAM or ICAM-1. […] Anti-ICAM-2 and α-ICAM-3 antibodies were used as positive controls to detect ICAM-2 and ICAM-3 respectively.

[4] = tested on: RPMI-8226 myeloma cells; assay: Disseminated RPMI-8226 model of multiple myeloma; assay type: in vivo, SCID mice; conditions: 2 mg/kg i.v. twice weekly for 8 weeks, vs control mAb and standard of care drugs
Procedure: ARH-77 cells or RPMI-8226 were injected intraveniously into the SCID mice. (FIG. 6A) ARH-77 model. Animals received intravenous injections with antibody at 2 mg/kg or bortezomib (Velcade) at 0.5 mg/kg on Days 7, 10, 13, and 16 (as indicated by arrows in the graph). (FIG. 6B) RPMI-8226-model. BI-505 or control mAb was administered i.v at 2 mg/kg, twice weekly for 8 weeks, bortezomid, at 1 mg/kg, once weekly for 8 weeks, lenalidomide p.o with 2 mg/kg for 2 cycles consisting of 5 days of treatment and 2 days of wash out, melphalan i.v at 3 mg/kg, once weekly for 8 weeks, and dexamethasone (DXH) at 6 mg/kg/inj 3 times/week for 2 consecutive weeks. There were 6-10 mice per treatment group. Statistical significance was calculated using Log-rank Graphpad Prism software and determined at ***p<0.001. (FIG. 6C) To study the ICAM-1 level on human cells, the cells from different organs were stained and gated for CD38+/mCD45−/BI-505+. Left panel indicates the percentage of BI-505 positive cells in CD38+/mCD45 population and right panel the mean fluorescent intensity of the positive cells.
The anti-myeloma effect of BI-505 was examined in a disseminated model of multiple myeloma. The early and advanced disseminated model of multiple myeloma was performed at Oncodesign, Dijon, France. […]

[5] = tested on: PBMC; assay: PBMC / T cell proliferation; assay type: cell-based
[6] = tested on: peripheral blood B cells; assay: PCD in normal B cells; assay type: cell-based; conditions: resting or activated cells
Procedure: Target cells were seeded in 96-well culture plates at a density of 2×10^6 cells/mL culture medium. Titrated concentrations of IgG1 B11 or different negative and positive control antibodies were added to the cells, in the absence or presence of anti-human Fab fragment (Jackson ImmunoResearch) for cross-linking. The cells were then incubated for 16 hours at 37° C. in a humidified atmosphere of 5% CO2. The cells were harvested and stained for Annexin V-488/Propidium Iodide (Invitrogen, Sweden) and analysed using flow cytometer (FACS Calibur, BD Bioscience).

recombinant human ICAM-1, sequence (P05362 28-532): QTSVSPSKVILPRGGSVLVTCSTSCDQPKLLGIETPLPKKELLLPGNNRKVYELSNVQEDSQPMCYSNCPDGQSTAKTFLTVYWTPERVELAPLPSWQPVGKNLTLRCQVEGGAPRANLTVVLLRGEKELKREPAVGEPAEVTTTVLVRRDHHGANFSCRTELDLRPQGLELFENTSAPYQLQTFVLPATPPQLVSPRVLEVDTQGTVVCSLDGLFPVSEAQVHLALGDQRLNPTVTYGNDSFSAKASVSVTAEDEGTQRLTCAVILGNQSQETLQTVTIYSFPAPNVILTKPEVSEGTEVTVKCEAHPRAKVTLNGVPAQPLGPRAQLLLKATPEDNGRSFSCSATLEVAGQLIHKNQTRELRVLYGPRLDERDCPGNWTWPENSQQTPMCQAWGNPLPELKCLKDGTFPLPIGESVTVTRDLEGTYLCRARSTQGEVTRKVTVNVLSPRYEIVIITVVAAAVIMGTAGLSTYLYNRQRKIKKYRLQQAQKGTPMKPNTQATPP

B1: IgG B11: fully human ICAM-1 antibody isolated from the n-CoDeR library; VH/VL sequences in FIG. 15 (SEQ ID NOs 8, 10) (antibody, V domains shown)
VH: EVQLLESGGGLVQPGGSLRLSCAASGFTFSNAWMSWVRQAPGKGLEWVAFIWYDGSNKYYADSVKGRFTISRDNSKNTLYLQMNSLRAEDTAVYYCARYSGWYFDYWGQGTLVTVSS
VL: QSVLTQPPSASGTPGQRVTISCTGSSSNIGAGYDVHWYQQLPGTAPKLLIYDNNNRPSGVPDRFSGSKSGTSASLAISGLRSEDEADYYCQSYDSSLSAWLFGGGTKLTVLG
modifications: B11 VH region; B11 VL region
- survival of tumor bearing mice [1]: prolonged survival
- tumor growth [1]: prevented tumor growth
- In vivo IgG Levels (serum antibody titers) ([2]; dose 0.02 mg/kg): 0.06 ± 0.02 µg/mL
- In vivo IgG Levels (serum antibody titers) ([2]; dose 0.2 mg/kg): 1.2 ± 0.4 µg/mL
- In vivo IgG Levels (serum antibody titers) ([2]; dose 2 mg/kg): 20 ± 2.9 µg/mL
- specificity for ICAM-1 [3]: high specificity
- survival [4]: significantly enhanced survival
- survival ([4]; listed as BI-505): significantly enhances survival; also recorded: highly improved survival
- cell proliferation ([5]; added in solution, resting or lipopolysaccharide pre-stimulated PBMCs): did not induce cell proliferation
- cell proliferation ([5]; immobilised by either protocol, or in solution with or without cross-linking reagent): did not induce cell proliferation
- PCD induction in normal B cells [6]: did not, however, induce PCD
